# Experimental data: US20230364000A1, “COMPOSITIONS COMPRISING COMBINATIONS OF COLLAGEN OR ELASTIN POLYPEPTIDES WITH ACTIVE INGREDIENTS AND METHODS OF USING SAME” (Geltor, Inc., priority 2020, published 2023)
# B1: SEQ ID NO: 16: truncated human collagen type 21 alpha 1 without the DsbA secretion tag, recombinantly expressed in E. coli (protein)
# chain: AGFPGLPGPAGEPGRHGKDGLMGSPGFKGEAGSPGAPGQDGTRGEPGIPGFPGNRGLMGQKGEIGPPGQQGKKGAPGMPGLMGSNGSPGQPGTPGSKGSKGEPGIQGMPGASGLKGEPGATGSPGEPGYMGLPGIQGKKGDKGNQGEKGIQGQKGENGRQGIPGQQGIQGHHGAKGERGEKGEPGVR
# How the values were obtained:
# [1] = tested on: facial skin; assay: Cutometer skin firmness and elasticity, clinical study of Example 3; assay type: in vivo, human; settings: 0.1% w/w topical formulation; for Cutometer Elasticity (R5 Ur/Ue) Mean ± SD / Cutometer Firmness (R0 Uf) Mean ± SD / Cutometer Elasticity (R2 Ua/Uf) Mean ± SD: n 14; for Cutometer Elasticity (R5 Ur/Ue) Mean ± SD: baseline 0.28 ± 0.06; for Cutometer Firmness (R0 Uf) Mean ± SD: baseline 0.35 ± 0.06; for Cutometer Elasticity (R2 Ua/Uf) Mean ± SD: baseline 0.64 ± 0.09
# Procedure: (§1) A clinical study using human subjects to determine the effects of a topical skincare product containing truncated human type 21 collagen (SEQ ID NO: 16) is performed. The research is performed according to U.S. and International standards of Good Clinical Practice (FDA and ICH guidelines) and applicable government regulations.
# (§2) A base formulation (control formulation) made of water, olive oil glycereth-8 esters, glycerin, coconut alkanes, hydroxyethyl acrylate/sodium acryloyldimethyl taurate copolymer, pentylene glycol, disodium EDTA, caprylyl glycol, chlorphenesin, phenoxyethanol is prepared. A formulation containing the truncated human type 21 collagen is prepared by adding sufficient collagen to prepare a topical formulation containing 0.1% w/w collagen.
# The Cutometer MPA 580 (Courage+Khazaka, Germany) measures the viscoelastic properties of the skin by applying suction to the skin surface, drawing the skin into the aperture of the probe and determining the penetration depth using an optical measuring system.
# The Cutometer outputs include many parameters of different portions of the measurement curve including of R0 (Uf, firmness), R2 (Ua/Uf, gross elasticity), R5 (Ur/Ue, net elasticity), R7 (Ur/Uf, elastic portion) and R9 (R3 [last max amp]-R0 [Uf], fatigue).
# All subjects have Cutometer measurements taken on the left or right cheek (following a prepared randomization code) at baseline, immediately post-initial-application, and at weeks 2, 4, and 8. Skin elasticity is reported using the R5 (Ur/Ue) and R2 (Ua/Uf) parameter. As the skin becomes more elastic, this value will increase. Skin Firmness is reported using the R0 (Uf) parameter. As the skin becomes firmer, this value will decrease. Assessment location is recorded on a face map for each subject for consistency of measurements between visits.
# Improvements in skin hydration, firmness, and elasticity were statistically significant.
# [2] = tested on: facial skin; assay: Facial skin redness, clinical study of Example 5; assay type: in vivo, human; settings: topical facial serum 0.1%, n=15, FIG. 8
# Excerpt: In a clinical study (n=15 subjects), subjects used a topical facial serum containing 0.1% of a polypeptide of SEQ ID NO: 16 for 8 weeks, after using a protein-free base facial serum for a 1-week washout period.
# [3] = tested on: Human full-thickness skin equivalents (MatTek Epiderm FT co-culture tissue models); assay: Type III collagen production in human full-thickness skin equivalents (pro-collagen type III N-peptide ELISA); assay type: cell-based; settings: polypeptide 0.1% w/w, ascorbic acid 2% w/w, FIG. 21
# [4] = tested on: human primary keratinocytes; assay: IL-la ELISA in UVB-irradiated keratinocytes; assay type: cell-based; settings: 40 mJ/cm^2 UVB, then 0.1% for 24 hours; compared to untreated UVB-irradiated keratinocytes; FIG. 3
# Procedure: Human primary keratinocytes were irradiated with 40 mJ/cm^2 UVB light, and then treated with 0.1% of a polypeptide of SEQ ID NO: 16 for 24 hours. Levels of the pro-inflammatory cytokines IL-la were determined by ELISA.
# [5] = tested on: facial skin; assay: Cutometer facial skin elasticity, clinical study of Example 5; assay type: in vivo, human; settings: topical facial serum 0.1%, n=15, FIG. 6
# Excerpt: In a clinical study (n=15 subjects), subjects used a topical facial serum containing 0.1% of a polypeptide of SEQ ID NO: 16 for 8 weeks, after using a protein-free base facial serum for a 1-week washout period. Topical application of a polypeptide of SEQ ID NO: 16 was associated with increased skin elasticity, measured using a cutometer.
# [6] = tested on: facial skin; assay: Expert clinical grader evaluation of facial skin (10 cm VAS; five-point ordinal scale for erythema), clinical study of Example 3; assay type: in vivo, human; settings: 0.1% w/w topical formulation, Week 2
# Procedure: as §1, §2
# Visual Analog Scales (VAS) are commonly used in clinical research to measure intensity or frequency of various symptoms, subjective characteristics or attitudes that cannot be directly measured. VAS are a reliable scale and more sensitive to small changes than simple ordinal scales. (A. Paul-Dauphin, F. Guillemin, J. Virion and S. Briancon, “Bias and precision in visual analog scales: A randomized controlled trial,” American Journal of Epidemiology, vol. 150, no. 10, pp. 1117-27, 1999). When responding to a VAS item, the expert grader specifies their level of agreement to a statement by indicating a position along a line (10 cm) between two end-points or anchor responses. Simple VAS is used to evaluate efficacy parameters in which the ends of a 10 cm horizontal line is defined as extreme limits orientated from the left (best) to the right (worst). Signs of photo-aging can be classified as follows: Mild=1-3.9 cm, Moderate=4-6.9 cm, Severe=7-10 cm.
# Ordinal scales allow a number to be directly and objectively attached to the quality of a given attribute. When responding to an ordinal scale item, the expert grader specifies their level of agreement to a statement by choosing a set grade, or level.
# The appearance of each subject's facial skin redness (erythema) is assessed by an expert grader using the following five-point ordinal scale for qualification at Baseline (Table 6). If qualified, each subject will undergo further erythema assessments at week 2, week 4, week 6 and week 8.
# Fourteen female subjects are enrolled. The inclusion criteria are Caucasian female subjects with Fitzpatrick skin type III in good general health, and between ages of 35 and 65 years old, inclusive at enrollment. Inclusion criteria also include signs of aging on face as determined by an expert grader at a baseline of: a) Score of >2 cm<6 on 10 cm scale for lines/wrinkles; and b) Score of >1<3 on 5-point ordinal scale for facial redness (erythema). Table 7 discloses the demographics of the study participants.
# The results of the expert clinical grader evaluation on lines/wrinkles, firmness (visual), elasticity (tactile), brightness, texture/softness (tactile), texture/smoothness (visual) and erythema after two weeks treatment are shown in Table 8. All of the tested characteristics were improved. The scores for brightness, texture/softness (tactile), texture/smoothness (visual) and erythema improved with statistical significance.
molecule,measurement,setting,value
B1,Cutometer Elasticity (R2 Ua/Uf) Mean Percent Improvement From BL mean,[1]; Immediate,45.85%
same,Cutometer Elasticity (R5 Ur/Ue) Mean Percent Improvement From BL mean,[1]; Immediate,44.57%
same,Cutometer Elasticity (R5 Ur/Ue) Percent of Subjects Showing Improvement From BL,[1]; Immediate,92.9%
same,Cutometer Firmness (R0 Uf) Mean Percent Improvement From BL mean,[1]; Immediate,30.38%
same,Cutometer Firmness (R0 Uf) Percent of Subjects Showing Improvement From BL,[1]; Immediate,100%
same,Cutometer Elasticity (R5 Ur/Ue) Mean ± SD,"[1]; Immediate, P-value <0.001*",0.40 ± 0.09
same,Cutometer Firmness (R0 Uf) Mean ± SD,"[1]; Immediate, P-value <0.001*, value decreases as skin becomes firmer",0.24 ± 0.05
same,Cutometer Elasticity (R2 Ua/Uf) Mean ± SD,"[1]; Immediate, P-value <0.001*",0.93 ± 0.13
same,Cutometer Elasticity (R2 Ua/Uf) Mean Percent Improvement From BL mean,[1]; Week 2,26.93%
same,Cutometer Elasticity (R5 Ur/Ue) Mean Percent Improvement From BL mean,[1]; Week 2,33.36%
same,Cutometer Elasticity (R5 Ur/Ue) Percent of Subjects Showing Improvement From BL,[1]; Week 2,92.9%
same,Cutometer Firmness (R0 Uf) Mean Percent Improvement From BL mean,[1]; Week 2,11.27%
same,Cutometer Firmness (R0 Uf) Percent of Subjects Showing Improvement From BL,[1]; Week 2,78.6%
same,Cutometer Elasticity (R5 Ur/Ue) Mean ± SD,"[1]; Week 2, P-value <0.001*",0.37 ± 0.08
same,Cutometer Firmness (R0 Uf) Mean ± SD,"[1]; Week 2, P-value 0.028*",0.31 ± 0.07
same,Cutometer Elasticity (R2 Ua/Uf) Mean ± SD,"[1]; Week 2, P-value <0.001*",0.80 ± 0.09
same,skin redness,[2]; 4 weeks vs baseline,decrease
same,skin redness,[2]; 8 weeks vs baseline,decrease
same,increase of type III collagen production relative to untreated control,[3]; day 2 supernatant,82%
same,production of type III collagen as compared to untreated cells,"[3]; each agent alone, day 2, retinol (10, unit not given), hyaluronic acid 0.1% w/w",increased production
same,levels of IL-la,[4],lower levels
same,subjects showing improvement with an increase in skin elasticity,[5]; 2 weeks vs baseline,100%
same,subjects showing improvement with an increase in skin elasticity,[5]; 4 weeks vs baseline,100%
same,Brightness Mean Percent Improvement From BL mean,[6],2.57%
same,Brightness Percent of Subjects Showing Improvement From BL,[6],78.6%
same,Elasticity (Tactile) Mean Percent Improvement From BL mean,[6],0.25%
same,Elasticity (Tactile) Percent of Subjects Showing Improvement From BL,[6],35.7%
same,Erythema Mean Percent Improvement From BL mean,[6],23.81%
same,Erythema Percent of Subjects Showing Improvement From BL,[6],35.7%
same,Firmness (Visual) Mean Percent Improvement From BL mean,[6],1.08%
same,Firmness (Visual) Percent of Subjects Showing Improvement From BL,[6],64.3%
same,Lines/Wrinkles (Global) Mean Percent Improvement From BL mean,[6],0.92%
same,Lines/Wrinkles (Global) Percent of Subjects Showing Improvement From BL,[6],57.1%
same,Texture/Smoothness (Visual) Mean Percent Improvement From BL mean,[6],3.63%
same,Texture/Smoothness (Visual) Percent of Subjects Showing Improvement From BL,[6],64.3%
same,Texture/Softness (Tactile) Mean Percent Improvement From BL mean,[6],6.43%
same,Texture/Softness (Tactile) Percent of Subjects Showing Improvement From BL,[6],71.4%
same,Texture/Softness (Tactile) Mean ± SD,"[6]; n 14, baseline 4.82 ± 0.82, P-value 0.008*",4.51 ± 0.89
same,Elasticity (Tactile) Mean ± SD,"[6]; n 14, baseline 4.91 ± 0.53, P-value 0.547",4.90 ± 0.52
same,Firmness (Visual) Mean ± SD,"[6]; n 14, baseline 5.07 ± 0.77, P-value 0.120",5.01 ± 0.75
same,Lines/Wrinkles (Global) Mean ± SD,"[6]; n 14, baseline 5.22 ± 0.75, P-value 0.336",5.17 ± 0.75
same,Texture/Smoothness (Visual) Mean ± SD,"[6]; n 14, baseline 5.46 ± 0.70, P-value 0.009*",5.25 ± 0.68
same,Brightness Mean ± SD,"[6]; n 14, baseline 5.51 ± 0.54, P-value 0.010*",5.37 ± 0.62
same,Erythema Mean ± SD,"[6]; five-point ordinal scale, n 14, baseline 1.60 ± 0.73, P-value 0.021*",1.21 ± 0.80
